# According to patent US20180021429A1, “ANTICANCER AGENTS OR ANTIMETASTATIC AGENTS USING FSTL1 AND COMBINATION DRUG THEREOF” (PHARMA FOODS INTERNATIONAL CO., LTD., priority 2015, published 2018):
# “Also recorded” adds a separate entry of the source.
# Experiments:
# [1] = tested on: human pancreatic cancer cell line Panc1; assay: Inhibitory activity against activation of tumor cell by FSTL1, RANKL-/CCR2-positive cells (Examples 5, 7, 9-11); assay type: cell-based; conditions: Example 10, FIG. 6C/36C; FSTL1 50 ng/mL; antibody 10 μg/mL; 3 days
# Method: It is known that tumor cells activated by stimulation with FSTL1 highly express molecule groups promoting bone metastasis and increase metastatic invasive capacity (Cancer Research 73: 6185, 2013). Thus, […] cells/well of a human pancreatic cancer cell line Panc1 were suspended in 1 mL/well of D-MEM medium (GIBCO/Thermo Fisher Scientific Inc. Cat. No. C11885500BT) containing 10% fetal bovine serum, supplemented with 50 ng/mL (final concentration) of FSTL1 (R&D Systems, Inc.) and 10 μg/mL of the anti-FSTL1 antibody (#5-2, #5-8, #5-10, #5-43, #6-55, or #7-34) or its isotype mouse IgG (anti-DNP antibody) as a control antibody “Control”, and cultured under stimulation (6-well plate). 3 days thereafter, the number of cells was counted while the cells were stained with a PE-labeled anti-RANKL antibody (eBioscience Cat. No. 12-6619) and a PE-labeled anti-CCR2 antibody (R&D Systems, Inc. Cat. No. FAB151P) in order to examine the expression of markers indicating bone metastatic properties, and the contents of RANKL-positive cells and CCR2-positive cells were analyzed by flow cytometry using FACScan (Becton, Dickinson and Company) to calculate the numbers of cells per culture. […] Therefore, in Examples below, judgment was made with the number of cells as an index.
# In the same way as in Example 5, a human pancreatic cancer cell line Panc1 was supplemented with 50 ng/mL (final concentration) of FSTL1 (R&D Systems, Inc.) and 10 μg/mL of the anti-FSTL1 antibody (the same clones as in Example 6) or a control antibody and cultured under stimulation.
# 3 days thereafter, the number of cells was counted while the cells were stained with a PE-labeled anti-RANKL antibody and a PE-labeled anti-CCR2 antibody, and the contents of RANKL-positive cells and CCR2-positive cells were analyzed by flow cytometry using FACScan (Becton, Dickinson and Company) to calculate the numbers of cells per culture (FIG. 5B).
# (§1) In the same way as in Example 5, a human pancreatic cancer cell line Panc1 was supplemented with 20 ng/mL (final concentration) of FSTL1 and 10 μg/mL of the anti-FSTL1 antibody (#5-2, #5-8, or #6-55) or a control antibody and cultured under stimulation. 3 days thereafter, the number of cells was counted while the cells were stained with a PE-labeled anti-RANKL antibody and a PE-labeled anti-CCR2 antibody, and the contents of RANKL-positive cells and CCR2-positive cells were analyzed by flow cytometry using FACScan (Becton, Dickinson and Company) to calculate the numbers of cells per culture (FIG. 6B).
# as §1, with “50” for “20”, “#5-3, #6-55, #7-34, #8-1, #8-4, #8-7,” for “#5-8,”, “#8-8)” for “#6-55)”, “culture.” for “culture (FIG. 6B).”
# as §1, with “50” for “20”, “(#6-55)” for “(#5-2, #5-8, or #6-55)”, “culture.” for “culture (FIG. 6B).”
# It is known that tumor cells activated by stimulation with FSTL1 highly express molecule groups promoting bone metastasis and increase metastatic invasive capacity (Cancer Research 73: 6185, 2013). […]
# [2] = tested on: human pancreatic cancer cell line Panc1; assay: Inhibition of activation of tumor cells by FSTL1, Panc1 (Examples 5, 7, 9, 10, 11); assay type: cell-based; conditions: Example 10: 50 ng/mL FSTL1, 10 μg/mL antibody, 3 days
# Method: It is known that tumor cells activated by stimulation with FSTL1 highly express molecule groups promoting bone metastasis and increase metastatic invasive capacity (Cancer Research 73: 6185, 2013). Thus, 2×10^7 cells/well of a human pancreatic cancer cell line Panc1 were suspended in 1 mL/well of D-MEM medium (GIBCO/Thermo Fisher Scientific Inc. Cat. No. C11885500BT) containing 10% fetal bovine serum, supplemented with 50 ng/mL (final concentration) of FSTL1 (R&D Systems, Inc.) and 10 μg/mL of the anti-FSTL1 antibody (#5-2, #5-8, #5-10, #5-43, #6-55, or #7-34) or its isotype mouse IgG (anti-DNP antibody) as a control antibody “Control”, and cultured under stimulation (6-well plate). 3 days thereafter, the number of cells was counted while the cells were stained with a PE-labeled anti-RANKL antibody (eBioscience Cat. No. 12-6619) and a PE-labeled anti-CCR2 antibody (R&D Systems, Inc. Cat. No. FAB151P) in order to examine the expression of markers indicating bone metastatic properties, and the contents of RANKL-positive cells and CCR2-positive cells were analyzed by flow cytometry using FACScan (Becton, Dickinson and Company) to calculate the numbers of cells per culture. […] Therefore, in Examples below, judgment was made with the number of cells as an index.
# as §1, with “supplemented with 50 ng/mL (final” for “supplemented with 20 ng/mL (final”, “of FSTL1 (R&D Systems, Inc.) and 10” for “of FSTL1 and 10”, “anti-FSTL1 antibody (the same clones as in Example 6) or a” for “anti-FSTL1 antibody (#5-2, #5-8, or #6-55) or a”, “culture (FIG. 99B).” for “culture (FIG. 6B).”
# as §1, with “100B).” for “6B).”
# as §1, with “50” for “20”, “#5-3, #6-55, #7-34, #8-1, #8-4, #8-7,” for “#5-8,”, “#8-8)” for “#6-55)”, “culture.” for “culture (FIG. 6B).”
# as §1, with “50” for “20”, “(#6-55)” for “(#5-2, #5-8, or #6-55)”, “culture.” for “culture (FIG. 6B).”
molecule,measurement,setting,value
"#8-7: chicken-mouse chimeric anti-FSTL1 antibody clone; variable regions SEQ ID NO: 799 (light), 801 (heavy) (antibody, V domains shown, mouse constant regions) VH: AVTLDESGGGLQTPGGGLSLVCKGSGFTFSSFNMFWVRQAPGKGLEWVAGIGKDGVPKYGAAVDGRATISKDNGQSTLRLQLNNLRAEDTGTYFCAKAAGGCSYDWCGIYAGDIDTWGHGTEVIVSS VL: ASTQPSSVSANPGEAVKITCSGGSGSYYGWYQQKSPGSAPVTVIYNNNQRPSDIPSRFSGSKSGSTATLTITGVQAEDEAVYFCGGYDSSTGHGGIFGAGTTLTVL",inhibitory activity against the expansion of RANKL-positive cells and CCR2-positive cells,[1],high inhibitory activity; also recorded: higher inhibitory activity
same,inhibitory activity against the expansion of RANKL-positive cells and CCR2-positive cells,[2],high inhibitory activity
